Source: US20070287670A1 (Bristol-Myers Squibb, published 2007)
Where no end group is shown, it is not given here. [ ]: non-standard residue; d: D form. Bip = N[C@@H](Cc1ccc(-c2ccccc2)cc1)C(=O)O

B1: peptide corresponding to the N-terminal 1-9 sequence of GLP-1, His-Ala-Glu-Gly-Thr-Phe-Thr-Ser-Asp-NH2 (peptide)
peptide: HAEGTFTSD-NH2
B2: GLP-1 11-mer peptide analog His-Ala-Glu-Gly-Thr-Phe-Thr-Ser-Asp-Bip-Bip-NH2 (peptide)
peptide: HAEGTFTSD[Bip][Bip]-NH2
modifications: N-terminus assumed
SMILES: C[C@H](NC(=O)[C@@H](N)Cc1c[nH]cn1)C(=O)N[C@@H](CCC(=O)O)C(=O)NCC(=O)N[C@H](C(=O)N[C@@H](Cc1ccccc1)C(=O)N[C@H](C(=O)N[C@@H](CO)C(=O)N[C@@H](CC(=O)O)C(=O)N[C@@H](Cc1ccc(-c2ccccc2)cc1)C(=O)N[C@@H](Cc1ccc(-c2ccccc2)cc1)C(N)=O)[C@@H](C)O)[C@@H](C)O

Target: Full-length human glucagon-like peptide 1 receptor (human, UniProt P43220 24-463)
Assay: cell-based or functional assay

Binder	cAMP production (EC50), cAMP cell-based assay in CHO-GLP-1R-19 cells
B1	> 1 millimolar
B2	1.1 µM
